Test results: patent publication US20150160214A1, “Quantitation of Cellular Adhesion Dynamics Across Immobilized Receptors Under Rheological Shear Flow” (Mayo Foundation for Medical Education and Research, priority 2013, published 2015)
Values joined by “and” are separate entries in the source; they are usually repeats but may differ in a detail not shown here. Equal entries are not always repeated.

Experiments:
Type in all cases: physicochemical
[1] = Secondary structure contribution calculated from CD-spectra (CDNN)
Protocol: Fluorescence and circular dichroism spectra of A1 and of RCAM A1 were measured to compare the basic spectroscopic properties of the two protein variants (FIG. 13). The fluorescence spectrum of native A1 has a relatively low intensity with λmax of ˜345 nm. In presence of 2 M GdnHCl the fluorescence intensity increases as the interior of the protein becomes solvent accessible and a red shift of the spectrum to ˜351 nm occurs. […] Nevertheless, RCAM A1 is still retains significant secondary structure content in solution; the distribution of which is summarized in Table 1. In the near UV, the CD of disulfide-intact A1 show a well-defined spectral banding pattern between 260 and 300 nm indicating significant tertiary structure content that is absent in RCAM A1.
Urea and GdnHCl induced unfolding of A1 and of RCAM A1 at 25° Celsius was monitored via CD at 222 nm on an Aviv Biomedical Model 420C circular dichroism spectrometer. A 1 mm quartz cuvette and protein concentrations of 5 or 10 μM were used. Samples were equilibrated in their urea or GdnHCl containing buffer at 25° Celsius overnight. CD-signal was averaged for 5 to 10 min using an integration time of 1 s. CD-spectra were measured at 20° Celsius using 0.1 or 1 mm quartz cells with a step width of 1 nm between 190 and 260 nm with an integration time of 20 s and a bandwidth of 1 nm. CD-spectra in the near UV range (260-360 nm) were recorded using a 5 cm quartz cell with a 120 s integration time. Transition curves and protein spectra were corrected for the CD Signal of the corresponding buffer.

[2] = Temperature-induced unfolding by fluorescence and CD, irreversible models (Example 1)
Protocol: A1-1261 and A1-1238 were thermally unfolded using intrinsic protein tyrosine and tryptophan fluorescence with an excitation λ=280 nm and emission λ=359 nm and CD monitored at λ=222 nm. […] As the scan rate increases, the midpoint of the transition (apparent TM) also increases.
Thermal transitions were analyzed in terms of the observed midpoint of the transition, apparent TM, and also by a two-state irreversible model or a three-state irreversible model as described in the Supplement and the calculated parameters are summarized in FIGS. 5A to 5D. […] If the protein unfolding was at equilibrium and reversible, this apparent TM would remain constant at all scan rates. Extrapolation of the TM to a scan rate of 0° Celsius/min provides an indication of where reversible unfolding would occur under equilibrium conditions; 50° Celsius for A1-1238 and 48° Celsius for A1-1261 from both CD and fluorescence data. For the second transition observed by fluorescence that occurs with A1-1238, the TM extrapolates to about 73° Celsius in the limit of zero scan rate. Analysis by the two-state and three-state irreversible models yields an R^2>0.99 for both fluorescence and CD and a transition temperature, T*, that is independent of the temperature scan rate. In addition, the enthalpies of the transitions are independent of scan rate within experimental error FIG. 5B. FIGS. 5C and 5D show the resulting average T* and ΔHT*^‡±the standard deviation obtained from the fitting of the primary thermal transitions in FIG. 4A to 4D for CD and fluorescence and a total average for both methods. […] However, the unfolding enthalpy was statistically larger for A1-1238 (250±15 kJ/mol) than for A1-1261 (204±10 kJ/mol). The average T* and ΔHT*^‡ observed in the second fluorescence transition of A1-1238 is 89.1±2.2° Celsius and 360±14 kJ/mol.
Prior to all spectroscopic thermal scans, protein samples were equilibrated at 10° Celsius for 15 min to obtain a stable baseline. CD thermal scans between 10 and 95° Celsius were recorded at λ=222 nm using a protein concentration of 1 or 2 μM in a 1 cm quartz cell under moderate stirring. Scan rates were 0.5, 1.0, 1.5 and 2.0° Celsius/min. Integration time for each data point was 20 s with a 1 nm bandwidth. Fluorescence thermal scans between 10 and 95 Celsius were recorded at an emission λ=359 nm after excitation λ=280 nm or λ=295 nm using 2 μM protein in a 1 cm quartz cell with moderate stirring. Scan rates were 0.4 or 0.6, 0.9, 1.6 and 2.0° Celsius/min. At each temperature, relative fluorescence intensity was collected for 4 s and averaged. Thermal scans in the presence of N-terminal peptide at 2.0° Celsius/min were preceded by 1 h incubations at 20° Celsius with 0.02-300 μM peptide.
For an irreversible two-state transition, unfolding is kinetically controlled by a first order rate constant that varies with temperature according to the Arrhenius equation (Atkins:1994). In our analysis the inventor refers to the intermediate state as the final irreversible state for all thermal transitions involving the unfolding of A1-1261 in the absence of peptide when monitored by fluoresence, CD and DSC and for A1-1238 when monitored by CD and DSC. The following equations derived below are equally valid for any two state irreversible transitions The activation energy in going from N->I is ΔG^‡=−RT ln k^‡ and the inventor expands ln k^‡ as a function of temperature in terms of Δβ=(β−β*)=(1/RT−1/RT*) using a Taylor series, where T̂* is the temperature at which ΔG^‡=0.

[3] = Urea-induced unfolding monitored by CD at 222 nm (Example 1); conditions: 25° Celsius, native to intermediate transition
Protocol: A1-1261 and A1-1238 were chemically unfolded with urea in order to compare the obtained thermodynamic parameters. The unfolding was monitored at 25° Celsius by CD at λ=222 nm, FIG. 3B. For both proteins, unfolding through an intermediate state was observed, as has been previously reported (Auton:2009). The thermodynamic parameters are illustrated in the insets of FIG. 3B and listed in the Supplement Table 2. Relative to A1-1261, A1-1238 has a marginal loss in unfolding cooperativity (+0.55±0.38 kJ/mol/M) of the transition and the midpoint, cm, of A1-1238 is increased by +0.27±0.04 M. These two contributions to the ΔG^0 cancel each other so that the N-terminal peptide is neither stabilizing nor destabilizing the conformational transition.
Isothermal urea induced unfolding of A1-1261 and A1-1238 at 25° Celsius was monitored via CD at λ=222 nm using a quartz cuvette with a path length of 1 mm and a protein concentration of 10 μM after an overnight equilibration. CD-signal was averaged for 10 min, corrected for the corresponding CD-signal of the buffer and converted into mean molar ellipticities per amino acid residue (θMRW).
Isothermal urea unfolding was analyzed using a three state reversible model (N<->I<->D) as previously described (Auton:2009, Auton:2007). All thermal unfolding transitions were analyzed according to the irreversible models provided in the Supporting Information. […]

[4] = calculated from CD-spectra, CDNN
[5] = covalently linked N-terminal peptide

A1-1238: Recombinant human vWF A1 domain, amino acids Q1238-P1471, with N-terminal 6×His-Tag, disulfide intact
% α-Helix [1, 4]: 38.0% | % β-sheet [1, 4]: 15.6% | % Remainder ([1]; β-turns and random coil structure): 46.4% | Apparent TM extrapolated to a scan rate of 0° Celsius/min, primary transition ([2]; CD and fluorescence data): 50 ° Celsius and 49.8±1.2 ° Celsius | Transition temperature T*, primary unfolding transition ([2]; average of CD and fluorescence): 63.9±0.6 ° Celsius | Unfolding enthalpy ΔHT*‡, primary unfolding transition ([2]; average of CD and fluorescence): 59.8 ± 3.59 kcal/mol | Average T*, second fluorescence transition [2, 5]: 89.1±2.2 ° Celsius | Average ΔHT*‡, second fluorescence transition [2, 5]: 86 ± 3.35 kcal/mol | Apparent TM extrapolated to zero scan rate, second transition by fluorescence ([2]; fluorescence): about 73 ° Celsius | Change in midpoint cm relative to A1-1261 [3]: +0.27±0.04 M | Change in unfolding cooperativity (m-value) relative to A1-1261 [3]: +0.55±0.38 kJ/mol/M
